Experimental data: US20030208060A1 (published 2003)

B5: MBP200 (membrane binding protein of ~200 kDa; human monocyte-macrophage apoB48 receptor, apoB48R) (receptor)
chain: MDFLRLYLPGLHQALRGALDSLGTFVSYLLGDAVPTVEREAQAAEELGVVAVGKTGKIVEEEAQEDLEGLRGSQNEGAGRLRGPGDDRRHEVGSSAVEQTWGWGDGSSHGSQAERQDSGAGETAKAARCQEPSAHLEARKKSKAGSGACQDRSGQAQERQESHEQEVNREERLRSWEQEEEEEEVRAREPGMARGAESEWTWHGETEGKAGAVGPKAAGDNREMEQGVREADAGETEEPGAEGAGKGEEVVVVEKACESTRAWGTWGPGAEPEDWGILGREEARTTPGREEARAILDGEEARTISGGEEAETASGGEEAETASGGEEAGTASGGEEAGISSGGEAGTASGGEEAGTASGGDEAWTTSGKEEADLLGVRQTQYGAVPGERLLEATGKVWVLEEEGDEEREAEVSPFPKQAQVLGTERTEEAAESQTAGREAVGGQEAGESFEGQVDLRGKEAEMRQDLGIRADRAKMEELVQAEEAQEERGSSRDPVAELPSDGEAEGTADLEATPEARPEEELTGEESEAAQTSCGLLGVEWGGLTHSVTKGQGPELMGGAQTPTKQPEEREAGEVELMGVLALSKEEQERSLEAGPRHAGSVKPEASEAFPGAWENRTRKDMERGNTQEDAADGEQREEEETAGGQTLAAEAEGDRESELSEVPEAGGEGLTTQDAGCGTEEGEASVSENQELDGSTGADAGPCPSLGEAYARETEDEEAEADRTSRRGWRLQAVAVGLPDREDAQTGSVAAGIMGGDVVPHISAAGAGEALEGALGQGWDSKEKEEAAAGEHAGGQEFGLEGSAEEEVTGRGSQVEAFESREGGPWGGRVEAEESAGAEDSCGLDPAGSQTARAEGMGAMVEAGGLLEKWTLLEEEAVGWQEREQREDSEGRCGDYHPEGEAPRLLDAEGLMVTGGRRAEAKETEPESLEHVRGQEEQPTHQAPAEAAPESVGEAETAEAMGSARGGAANSWSEAPLPGSLLDVSVPRSRVHLSRSSSQRRSRPSFRRTPAWEQQEEPPAPNPPEEELSAPEQRPLQLEEPLEPSPLRHDGTPVPARRRPLGHGFGLAHPGMMQELQARLGRPKPQ
notes: Native protein in Triton X-114 aqueous-phase extracts of THP-1 monocytes, run on non-reducing SDS-PAGE and blotted to nitrocellulose; Apparent Mr ~200 kD against ~114.8 kD deduced; also called TGRLP receptor; TGRLP/ApoB receptor

Columns and labels:
[1] = target: the molecule itself; assay: SDS-PAGE of the purified GST fusion protein
[2] = target: B5; assay: ligand blot
Experimental: The ligand blotting assay was performed essentially as described (Gianturco et al., 1988, 1994; Ramprasad et al., 1995) with minor modifications. Aliquots of the detergent extracts were electrophoresed on 5% polyacrylamide gels containing 0.1% SDS (Laemmli, 1970) under non-reducing conditions in a Bio-Rad minigel apparatus and electrotransferred to nitrocellulose. After blocking for 1 hour with 5% Carnation nonfat dry milk in ligand buffer (50 mM Tris-HCl (pH 8), 90 mM NaCl and 2 mM CaCl₂), the blots were rinsed with 0.5% milk in ligand buffer before incubation with lipoproteins in ligand buffer containing 0.05% milk (Gianturco et al., 1988).
For competitive ligand blots, TGRLP were biotinylated as described (O'Shannessy et al., 1984) and dialyzed extensively before use. […] After extensive washing, bound lipoprotein was detected by incubation with streptavidin linked to alkaline phosphatase, followed by substrates BCIP and NBT (Bio-Rad Laboratories, CA). In some experiments without antibodies as potential competitors, native, unlabeled TGRLP were used as the ligand, and bound TGRLP was detected with anti-apoB followed by alkaline phosphatase-linked secondary antibody. […]

[3] = target: the molecule itself; assay: SDS-PAGE of the purified fusion protein
[4] = target: T1, normal VLDL Sf100-400 from a subject with normal plasma TG levels (human, UniProt P04114 28-4563); assay: ligand blot; the binding is of lower affinity
T1 construct: Lipoprotein particle; also called N-V1; normal very low density lipoprotein

[5] = target: T2, intermediate density lipoprotein (human, UniProt P04114 28-4563); assay: ligand blot; the binding is of lower affinity
T2 construct: Lipoprotein particle; also called IDL

[6] = target: T3, low density lipoprotein (LDL) (human, UniProt P04114 28-4563); assay: ligand blot; lower affinity than HTG TGRLP and chylomicrons
T3 construct: Lipoprotein particle
T3 sequence (P04114 28-4563 limits assumed): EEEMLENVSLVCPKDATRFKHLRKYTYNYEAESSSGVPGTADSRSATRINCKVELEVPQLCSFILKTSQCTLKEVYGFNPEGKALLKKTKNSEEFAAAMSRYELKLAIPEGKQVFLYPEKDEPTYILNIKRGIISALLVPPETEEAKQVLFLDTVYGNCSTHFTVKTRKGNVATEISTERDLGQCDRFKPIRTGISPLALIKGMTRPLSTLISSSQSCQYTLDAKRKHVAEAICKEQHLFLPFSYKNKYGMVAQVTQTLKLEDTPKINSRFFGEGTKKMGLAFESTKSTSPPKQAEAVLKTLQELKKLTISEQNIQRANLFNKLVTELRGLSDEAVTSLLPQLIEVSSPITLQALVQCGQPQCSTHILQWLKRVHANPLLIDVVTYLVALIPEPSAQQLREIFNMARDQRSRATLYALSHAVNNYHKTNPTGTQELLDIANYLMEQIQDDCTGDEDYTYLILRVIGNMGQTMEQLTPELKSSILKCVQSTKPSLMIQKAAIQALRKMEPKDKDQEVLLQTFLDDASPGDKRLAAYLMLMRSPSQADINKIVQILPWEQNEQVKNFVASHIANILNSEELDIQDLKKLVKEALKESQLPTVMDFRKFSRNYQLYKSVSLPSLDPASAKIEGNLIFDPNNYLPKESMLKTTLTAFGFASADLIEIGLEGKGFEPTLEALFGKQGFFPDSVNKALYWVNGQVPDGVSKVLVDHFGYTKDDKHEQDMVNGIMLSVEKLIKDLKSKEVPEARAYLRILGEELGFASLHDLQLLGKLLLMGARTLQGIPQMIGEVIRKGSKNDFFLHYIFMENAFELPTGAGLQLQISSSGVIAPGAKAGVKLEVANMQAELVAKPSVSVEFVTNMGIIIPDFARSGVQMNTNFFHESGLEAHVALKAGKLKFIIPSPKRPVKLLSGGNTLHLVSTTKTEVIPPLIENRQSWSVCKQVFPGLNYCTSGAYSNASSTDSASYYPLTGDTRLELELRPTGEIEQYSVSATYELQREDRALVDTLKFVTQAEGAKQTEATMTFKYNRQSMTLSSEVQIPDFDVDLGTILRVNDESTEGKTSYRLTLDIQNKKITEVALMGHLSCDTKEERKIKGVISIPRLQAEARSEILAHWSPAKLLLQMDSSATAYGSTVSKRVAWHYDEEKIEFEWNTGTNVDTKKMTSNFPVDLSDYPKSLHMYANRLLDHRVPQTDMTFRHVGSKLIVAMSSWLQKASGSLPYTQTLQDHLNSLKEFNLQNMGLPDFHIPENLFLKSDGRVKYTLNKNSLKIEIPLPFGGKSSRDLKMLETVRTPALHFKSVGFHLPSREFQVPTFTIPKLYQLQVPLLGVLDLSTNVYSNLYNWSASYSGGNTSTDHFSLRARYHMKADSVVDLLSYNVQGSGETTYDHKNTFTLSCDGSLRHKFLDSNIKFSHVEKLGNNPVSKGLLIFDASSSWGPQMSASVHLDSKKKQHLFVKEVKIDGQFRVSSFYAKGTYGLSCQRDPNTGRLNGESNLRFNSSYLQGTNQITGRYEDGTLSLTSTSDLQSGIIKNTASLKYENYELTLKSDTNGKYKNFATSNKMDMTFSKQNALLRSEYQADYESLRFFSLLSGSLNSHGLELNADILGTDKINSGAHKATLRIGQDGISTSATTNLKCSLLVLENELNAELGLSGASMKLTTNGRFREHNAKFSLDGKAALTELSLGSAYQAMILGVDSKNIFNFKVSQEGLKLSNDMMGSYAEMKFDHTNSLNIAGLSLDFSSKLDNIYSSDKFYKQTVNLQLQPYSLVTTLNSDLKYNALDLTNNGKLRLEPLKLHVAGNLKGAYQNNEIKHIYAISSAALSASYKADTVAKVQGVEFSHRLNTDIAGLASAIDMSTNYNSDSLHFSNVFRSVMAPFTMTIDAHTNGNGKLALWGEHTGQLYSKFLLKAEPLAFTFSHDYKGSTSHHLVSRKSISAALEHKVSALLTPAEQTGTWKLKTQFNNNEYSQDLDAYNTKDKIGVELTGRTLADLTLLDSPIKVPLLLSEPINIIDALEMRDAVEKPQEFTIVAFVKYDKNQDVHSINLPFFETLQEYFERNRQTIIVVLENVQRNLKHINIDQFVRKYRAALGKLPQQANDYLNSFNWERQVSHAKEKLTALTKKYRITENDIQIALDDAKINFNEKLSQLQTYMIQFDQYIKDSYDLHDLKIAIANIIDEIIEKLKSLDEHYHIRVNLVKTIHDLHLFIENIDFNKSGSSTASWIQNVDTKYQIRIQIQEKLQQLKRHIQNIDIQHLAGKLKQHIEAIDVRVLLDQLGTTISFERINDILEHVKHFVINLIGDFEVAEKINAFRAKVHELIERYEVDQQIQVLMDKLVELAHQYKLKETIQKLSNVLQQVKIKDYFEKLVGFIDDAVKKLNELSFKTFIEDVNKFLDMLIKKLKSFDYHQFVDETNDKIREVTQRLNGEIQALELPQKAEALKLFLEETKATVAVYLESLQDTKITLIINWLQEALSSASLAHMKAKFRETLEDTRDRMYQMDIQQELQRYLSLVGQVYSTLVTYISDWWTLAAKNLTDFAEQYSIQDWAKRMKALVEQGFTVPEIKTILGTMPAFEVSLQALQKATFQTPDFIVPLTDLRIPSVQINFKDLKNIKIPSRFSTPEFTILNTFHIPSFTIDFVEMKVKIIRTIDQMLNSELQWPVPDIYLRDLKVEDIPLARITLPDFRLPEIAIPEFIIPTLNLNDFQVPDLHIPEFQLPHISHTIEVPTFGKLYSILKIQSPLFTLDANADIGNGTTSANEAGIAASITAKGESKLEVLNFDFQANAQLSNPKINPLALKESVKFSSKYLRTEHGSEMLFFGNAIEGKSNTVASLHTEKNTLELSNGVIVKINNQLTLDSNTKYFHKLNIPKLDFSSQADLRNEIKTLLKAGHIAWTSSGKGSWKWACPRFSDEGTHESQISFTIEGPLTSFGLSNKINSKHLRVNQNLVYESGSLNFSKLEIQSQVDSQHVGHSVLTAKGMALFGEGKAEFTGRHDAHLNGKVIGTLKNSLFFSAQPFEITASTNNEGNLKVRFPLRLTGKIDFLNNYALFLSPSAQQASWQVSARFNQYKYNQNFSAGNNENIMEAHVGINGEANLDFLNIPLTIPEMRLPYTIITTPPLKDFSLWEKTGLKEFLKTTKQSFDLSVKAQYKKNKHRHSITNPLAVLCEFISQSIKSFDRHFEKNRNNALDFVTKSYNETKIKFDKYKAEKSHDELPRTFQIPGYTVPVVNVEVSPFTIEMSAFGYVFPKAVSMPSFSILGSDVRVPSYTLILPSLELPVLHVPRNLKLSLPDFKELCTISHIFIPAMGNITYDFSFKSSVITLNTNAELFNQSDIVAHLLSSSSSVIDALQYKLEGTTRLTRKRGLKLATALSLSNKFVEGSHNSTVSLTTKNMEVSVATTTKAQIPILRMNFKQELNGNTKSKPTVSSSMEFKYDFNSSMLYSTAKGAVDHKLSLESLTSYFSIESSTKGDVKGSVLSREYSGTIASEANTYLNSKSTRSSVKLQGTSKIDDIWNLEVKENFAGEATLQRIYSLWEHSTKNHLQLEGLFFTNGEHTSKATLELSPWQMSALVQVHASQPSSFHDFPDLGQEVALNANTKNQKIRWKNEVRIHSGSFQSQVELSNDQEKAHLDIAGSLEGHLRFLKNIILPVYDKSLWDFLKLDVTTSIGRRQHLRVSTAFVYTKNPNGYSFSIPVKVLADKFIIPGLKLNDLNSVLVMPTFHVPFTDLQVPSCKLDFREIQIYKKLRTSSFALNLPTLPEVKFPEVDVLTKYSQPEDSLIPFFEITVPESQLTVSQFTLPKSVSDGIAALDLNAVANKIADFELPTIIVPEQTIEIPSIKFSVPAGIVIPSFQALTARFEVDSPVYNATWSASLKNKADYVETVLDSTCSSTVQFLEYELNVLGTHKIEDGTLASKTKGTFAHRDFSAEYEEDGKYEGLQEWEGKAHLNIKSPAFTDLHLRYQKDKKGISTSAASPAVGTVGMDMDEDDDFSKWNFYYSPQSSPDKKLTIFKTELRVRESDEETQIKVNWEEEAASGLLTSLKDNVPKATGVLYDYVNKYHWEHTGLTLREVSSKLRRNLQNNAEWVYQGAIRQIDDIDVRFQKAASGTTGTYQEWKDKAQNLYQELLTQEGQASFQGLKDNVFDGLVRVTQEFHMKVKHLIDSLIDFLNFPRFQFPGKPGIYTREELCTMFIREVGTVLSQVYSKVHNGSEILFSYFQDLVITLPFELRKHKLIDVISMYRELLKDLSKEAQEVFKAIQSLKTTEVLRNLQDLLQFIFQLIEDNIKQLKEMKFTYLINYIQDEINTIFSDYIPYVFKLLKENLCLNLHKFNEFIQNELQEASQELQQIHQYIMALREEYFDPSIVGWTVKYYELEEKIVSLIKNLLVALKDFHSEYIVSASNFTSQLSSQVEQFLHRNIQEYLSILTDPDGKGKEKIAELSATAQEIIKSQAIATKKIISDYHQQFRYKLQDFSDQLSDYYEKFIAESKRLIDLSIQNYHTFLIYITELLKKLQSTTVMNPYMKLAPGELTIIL

T1 sequence (P04114 28-4563 limits assumed): as above
T2 sequence (P04114 28-4563 limits assumed): as above

B1: GST fusion protein containing apoB48R amino acid 629-1088 (other)
chain: QEDAADGEQREEEETAGGQTLAAEAEGDRESELSEVPEAGGEGLTTQDAGCGTEEGEASVSENQELDGSTGADAGPCPSLGEAYARETEDEEAEADRTSRRGWRLQAVAVGLPDREDAQTGSVAAGIMGGDVVPHISAAGAGEALEGALGQGWDSKEKEEAAAGEHAGGQEFGLEGSAEEEVTGRGSQVEAFESREGGPWGGRVEAEESAGAEDSCGLDPAGSQTARAEGMGAMVEAGGLLEKWTLLEEEAVGWQEREQREDSEGRCGDYHPEGEAPRLLDAEGLMVTGGRRAEAKETEPESLEHVRGQEEQPTHQAPAEAAPESVGEAETAEAMGSARGGAANSWSEAPLPGSLLDVSVPRSRVHLSRSSSQRRSRPSFRRTPAWEQQEEPPAPNPPEEELSAPEQRPLQLEEPLEPSPLRHDGTPVPARRRPLGHGFGLAHPGMMQELQARLGRPKPQ
notes: not shown: glutathione-S-transferase of the pGEX-5X-3 vector (Pharmacia)
Question: Does B1 bind [1]?
Answer: no binding

B2: human receptor-associated protein (RAP) (other, UniProt P30533 35-357, looked up)
chain: YSREKNQPKPSPKRESGEEFRMEKLNQLWEKAQRLHLPPVRLAELHADLKIQERDELAWKKLKLDGLDEDGEKEARLIRNLNVILAKYGLDGKKDARQVTSNSLSGTQEDGLDDPRLEKLWHKAKTSGKFSGEELDKLWREFLHHKEKVHEYNVLLETLSRTEEIHENVISPSDLSDIKGSVLHSRHTELKEKLRSINQGLDRLRRVSHQGYSTEAEFEEPRVIDLWDLAQSANLTDKELEAFREELKHFEAKIEKHNHYQKQLEIAHEKLRHAESVGDGERVSRSREKHALLEGRTKELGYTVKKHLQDLSGRISRARHNEL
Question: Does B2 bind [2]?
Answer: no binding

B3: glutathione-S-transferase (GST)-fusion protein containing apoB48R amino acid 223 to 710 (other)
chain: EMEQGVREADAGETEEPGAEGAGKGEEVVVVEKACESTRAWGTWGPGAEPEDWGILGREEARTTPGREEARAILDGEEARTISGGEEAETASGGEEAETASGGEEAGTASGGEEAGISSGGEAGTASGGEEAGTASGGDEAWTTSGKEEADLLGVRQTQYGAVPGERLLEATGKVWVLEEEGDEEREAEVSPFPKQAQVLGTERTEEAAESQTAGREAVGGQEAGESFEGQVDLRGKEAEMRQDLGIRADRAKMEELVQAEEAQEERGSSRDPVAELPSDGEAEGTADLEATPEARPEEELTGEESEAAQTSCGLLGVEWGGLTHSVTKGQGPELMGGAQTPTKQPEEREAGEVELMGVLALSKEEQERSLEAGPRHAGSVKPEASEAFPGAWENRTRKDMERGNTQEDAADGEQREEEETAGGQTLAAEAEGDRESELSEVPEAGGEGLTTQDAGCGTEEGEASVSENQELDGSTGADAGPCPSLGE
notes: Migrates as a dimer on SDS-PAGE; also called apoB48R-GST fusion protein (aa 223-710); not shown: glutathione-S-transferase of the pGEX-5X-3 vector (Pharmacia)
Question: Does B3 bind [3]?
Answer: binds

B4: GST fusion protein containing apoB48R amino acid 714-917 (other)
chain: RETEDEEAEADRTSRRGWRLQAVAVGLPDREDAQTGSVAAGIMGGDVVPHISAAGAGEALEGALGQGWDSKEKEEAAAGEHAGGQEFGLEGSAEEEVTGRGSQVEAFESREGGPWGGRVEAEESAGAEDSCGLDPAGSQTARAEGMGAMVEAGGLLEKWTLLEEEAVGWQEREQREDSEGRCGDYHPEGEAPRLLDAEGLMVTG
notes: as for B1
Question: Does B4 bind [1]?
Answer: no binding

Question: Does B5 bind [4]?
Answer: binds

Question: Does B5 bind [5]?
Answer: binds

Question: Does B5 bind [6]?
Answer: binds
